Target: RHDV VPg fused to the VN155 (I152L) fragment for BiFC (Rabbit hemorrhagic disease virus (RHDV) strain CHA/JX/97)
Test: split reporter (BiFC, NanoBiT); BiFC in RK-13 cells, pVPg-VN and peIF4E-VC; green fluorescence quantified by flow cytometry 48 h after transfection

With “eIF4E fused to the VC155 fragment for BiFC (from UniProt P29338 1-217) (natural protein)” the BiFC signal-to-noise (ratio between the treatment and control groups) was greater than 3.
